Data on one molecule can be found in patent US12673985B2, “Method for the treatment or prophylaxis of cancer by targeting the extracellular portion of keratin 14 (KRT14) residing on cancer cells” (Hudson Institute of Medical Research, priority 2019, dated 2026).

One series has as its system KRT14+ cells. As to the kind of experiment: Flow cytometry for KRT14+ cell populations in ovarian cancer cells. In kind it is cell-based, human and murine. The note with it: mAb AN-17 1:200. How it is done: (§1) Flow cytometry was carried out according to standard protocols (PMID: 30602661), with data acquired using a BD LSRFortessa X-20 (BD Biosciences) and analysed using FlowJo software v10.5.0 (BD Biosciences). Samples assessed for KRT14+ cell populations included OVCAR3, CAOV4, ID8 mouse ovarian cancer cells, ascites-derived ovarian cancer cells derived from a clinical specimen (designated #3.1937-07) and cardiac blood from a mice bearing 12-week old epithelial ovarian tumours. For cell lines, 1×10^6 cells per cell line were incubated with either mAb AN-17 (1:200 dilution) or a commercially available anti-KRT14 polyclonal antibody (Sigma SAB4501657; 1:50 dilution) as a positive control for 45 mins in non-immune serum at room temperature. The secondary antibodies, goat anti-mouse Alexa647 (mAb AN-17) or goat anti-rabbit IgG Alexa 488 (commercial Ab), were diluted 1:500 and incubated for 30 minutes. For blood samples, 2×10^6 cells were incubated with an Alexa Fluor®488-conjugated mAb AN-17 antibody for 45 minutes. Following PBS washes, cells were resuspended in PBS/2% FBS data was acquired using a BD LSRFortessa X-20 (BD Biosciences) flow cytometer.
A general note: A flow cytometer gives signals particle by particle.

In series [1] the test system is MDA-MB-468 breast carcinoma. As to the kind of experiment: In vitro wound repair assay. In kind it is cell-based. The note with it: mAb 1 μg/ml; 16 hrs. How it is done: (§2) In vitro wound repair assay. Ovarian cancer cells (or other cancer cell lines—BT16, NCI-H1573, AN3CA, SW620 and MDA-MB-468) were grown in complete medium to confluency in a 12-well plate, then serum-starved overnight to synchronize at G0. The following day cell culture medium was removed, and cell monolayers were wounded by scraping with a pipette tip attached to suction. Non-adherent cells were removed by gentle washes with PBS, and complete growth medium with or without mAb AN-17 (1 μg/ml) or commercial KRT14 polyclonal antibody (1 μg/ml) was replaced. The wound area was imaged under a phase microscope (Leica) at regular intervals ranging from 0-72 h. Wound closure was measured in image series using AnalySIS LS Research Software (Olympus) to determine the area of the wound on each day. Experiments were repeated in triplicate with at least six wound areas observed per growth condition.
(§3) In vitro wound repair assays were conducted on the following cancer cell lines: BT16 atypical teratoid rhabdoid (brain) carcinoma, NCI-H1573 lung adenocarcinoma, SJ-GBM2 primary glioblastoma multiforme, AN3CA endometrial carcinoma, SW620 colorectal carcinoma and MDA-MB-468 breast carcinoma. Cells were grown in complete medium to confluency in a 12-well plate, and subsequently serum-starved overnight to synchronize at G0. The following day, cell culture medium was removed and the cell monolayers were wounded by scraping with a pipette tip attached to suction. Non-adherent cells were removed by gentle washes with phosphate buffered saline (PBS) and complete growth medium was added to each well, in either the absence or presence of mAb AN-17 (at 1 μg/ml). The wound area was imaged every hour for 0-24 hours. Wound closure was measured in image series using AnalySIS LS Research Software (Olympus) to determine the area of the wound on each day. Experiments were repeated in triplicate with at least six wound areas observed per growth condition.

In series [2] the test system is NCI-H1573 lung adenocarcinoma. As to the kind of experiment: In vitro wound repair assay. In kind it is cell-based. The note with it: mAb 1 μg/ml; 16 hrs. How it is done: as §2, §3
For series [3], the system named is BT16 atypical teratoid rhabdoid (brain) carcinoma. As to the kind of experiment: In vitro wound repair assay. The class given is cell-based. As to conditions: mAb 1 μg/ml; 16 hrs. The procedure: as §2, §3
In series [4] the test system is SW620 colorectal carcinoma. As to the kind of experiment: In vitro wound repair assay. In kind it is cell-based. The note with it: antibody 1 μg/ml; 16 hours. The procedure:
as §2
(§4) In vitro wound repair assays were conducted using AN3CA endometrial carcinoma and SW620 colorectal carcinoma lines. Cells were grown in complete medium to confluency in a 12-well plate, then serum-starved overnight to synchronize at G0. The following day cell culture medium was removed, and cell monolayers were wounded by scraping with a pipette tip attached to suction. […] Wound closure was measured in image series using AnalySIS LS Research Software (Olympus) to determine the area of the wound on each day. […]

In series [5] the test system is AN3CA endometrial carcinoma. As to the kind of experiment: In vitro wound repair assay. The class given is cell-based. As to conditions: antibody 1 μg/ml; 16 hours. The procedure:
as §2, §4

The subject of series [6] is 9,184 individual recombinant human proteins. As to the kind of experiment: ProtoArray Human Protein Microarrays v5.0 cross-reactivity profiling. In kind it is binding. The note with it: mAb diluted 1:500. The procedure: Proteomic profiling of mAb AN-17 antibody reactivity was performed using Invitrogen™ ProtoArray™ Human Protein Microarrays v5.0 (ThermoFisher Scientific, Waltham MA), comprising 9,184 individual recombinant human proteins spotted in duplicate. All procedures were carried out as previously described (PMID: 29141850; Wilson et al. Cancer Epidemiol Biomarkers Prev. 2018; 27(2):183-192). Arrays were probed using mAb AN-17 diluted 1:500 in wash buffer. Fluorescent detection antibody against IgG heavy and light chains was from Abcam (#ab150119 Goat Anti-Mouse IgG H&L Alexa Fluor® 647, preadsorbed) diluted to […] in wash buffer prior to use. A single array incubated with detection antibody alone was used as a control for non-specific antibody binding.
Array imaging was performed using a Fuji FLA5100 multi wavelength scanner as described (PMID: 29141850; Wilson et al. Cancer Epidemiol Biomarkers Prev. 2018; 27(2):183-192), using a 635 nm excitation laser and dual band pass Cy3/Cy5 filter. Images were acquired at […], with PMT set at 1000V. Array alignment, feature extraction and data normalization were performed as previously described (PMID: 29141850; Wilson et al. Cancer Epidemiol Biomarkers Prev. 2018; 27(2):183-192). Array co-ordinates were obtained from the manufacturer-provided downloadable .GAL files (ThermoFisher Scientific).

The test system of a further series is KRT14+ CTCs. As to the kind of experiment: Flow cytometry detection of circulating tumour cells in blood of mice bearing ID8 iRFP720+ epithelial ovarian tumours. The class given is cell-based. As to conditions: confirmed by iRFP720+ status. How it is done:
as §1
Expression of extracellular KRT14 also marks the circulating tumour cell (CTC) population.

Series [7] can be described thus: Assessment of mAb AN-17 toxicity, single intraperitoneal dose. The class given is in vivo, mice. The procedure: Doses of 0.5, 1.0. 2.5, 5.0 and 10 mg/kg were assessed. After 7 days mice were culled, and examined post mortem for any evidence of toxicity (macroscopic tissue appearance, presence of inflammation, or any obvious lesions).

Entries after “also recorded” stand apart in the source; their conditions may differ.

B1: mAb AN-17: monoclonal anti-KRT14 antibody; heavy chain variable region SEQ ID NO:3, light chain variable region SEQ ID NO:5 (clone AN-17A RG4.E5b.A7.B4) (antibody, listed as Mus musculus, V domains shown)
VH: QVQLKESGPGLVAPSQSLSITCTVSGFSLSRYSVHWVRQPPGKGLEWLGMIWGGGSTDYNSALKSRLSISKDNSKSQVFLKMNSLQTDDTAMYYCARKDYGYSYFDYWGQGTTLTVSS
VL: DVLMTQTPLSLPVSLGDQASISCRSSQSIVHSNGNTYLEWYLQKPGQSPKLLIYKVSNRFSGVPDRFSGSGSGTDFTLKISRVEAEDLGVYYCFQGSHVPFTFGSGTKLEIKRADAAPTVS
In the case of B1, the “detection of KRT14+ cells by flow cytometry compared to Sigma SAB4501657” value with KRT14+ cells was “comparable sensitivity”. Moreover, the “wound closure / migration, MDA-MB-468” value in series [1] was “failed to close the wound; also recorded: impaired”. For the same molecule, the “wound closure / migration, NCI-H1573” value in series [2] is on record as “failed to close the wound; also recorded: impaired”. Besides, in [3], the “wound closure / migration, BT16” value is given as “failed to close the wound; also recorded: impaired”. Further, the “wound closure / migration, SW620” value in series [4] is recorded as “failed to close the wound; also recorded: impaired”. In addition, in series [5], the “wound closure / migration, AN3CA” value was “failed to close the wound; also recorded: impaired”. The “cross-reactivity with protein antigens on arrays” value is “did not react with any of the proteins present on the arrays tested; also recorded: No cross-reactivity was evident” in [6] and “did not react with any of the antigens present on the array, including several related keratin proteins” in series [6] (listed as mAB AN-17). Moreover, the “identification of circulating tumour cells from whole blood” value was “able to detect and isolate KRT14+ CTCs” with KRT14+ CTCs; “able to correctly identify iRFP+ cells from whole blood” in the series on KRT14+ CTCs (listed as mAB AN-17). In series [7] (doses up to 10 mg/kg i.p.), the maximum tolerated dose result is on record as “not reached”. Moreover, in [7] (single i.p. dose 0.5, 1.0, 2.5, 5.0 and 10 mg/kg, up to 7 days and post mortem), the “evidence of toxic effects” value is given as “No evidence of toxic effects; also recorded: no toxicity noted at any dose or any time point”.
